# Results from IntAct's records for PubMed 19766572.
# B1: Peroxiredoxin-1 (Gallus gallus (Chicken)), P0CB50 (parent)
# chain: MSSGKAFIGKPAPDFTATAVMPDGQFKDIKLSDYRGKYVVFFFYPLDFTFVCPTEIIAYSDRADEFKKINCEIIGASVDSHFCHLAWINTPKKQGGLGTMKIPLVSDTKRVIAKDYGVLKEDEGIAYRGLFIIDEKGILRQITINDLPVGRSVDETLRLVQAFQFTDKHGEVCPAGWKPGSDTIKPDVQKSKEYFSKQK
# partner: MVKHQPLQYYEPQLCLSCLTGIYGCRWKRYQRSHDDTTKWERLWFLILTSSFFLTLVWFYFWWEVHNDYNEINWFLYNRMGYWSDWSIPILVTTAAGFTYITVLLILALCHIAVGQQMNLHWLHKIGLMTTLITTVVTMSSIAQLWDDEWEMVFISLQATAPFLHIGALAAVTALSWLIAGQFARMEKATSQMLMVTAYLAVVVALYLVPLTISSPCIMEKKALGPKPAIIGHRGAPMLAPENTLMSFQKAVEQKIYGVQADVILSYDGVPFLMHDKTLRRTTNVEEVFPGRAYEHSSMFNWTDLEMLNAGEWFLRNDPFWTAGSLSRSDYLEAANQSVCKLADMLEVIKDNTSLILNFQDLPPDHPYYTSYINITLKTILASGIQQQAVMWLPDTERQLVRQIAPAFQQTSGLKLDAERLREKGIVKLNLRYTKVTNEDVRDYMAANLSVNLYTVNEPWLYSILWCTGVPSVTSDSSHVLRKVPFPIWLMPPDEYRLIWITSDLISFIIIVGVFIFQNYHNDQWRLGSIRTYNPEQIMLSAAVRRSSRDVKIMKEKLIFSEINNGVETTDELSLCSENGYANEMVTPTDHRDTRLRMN
# Variants of: B1
# Conditions: with gdpd5_chick GDPD5, Q3KTM2
row,Variant,effect of a mutation on the interaction
1,MSSGKAFIGKPAPDFTATAVMPDGQFKDIKLSDYRGKYVVFFFYPLDFTFVSPTEIIAYSDRADEFKKINCEIIGASVDSHFCHLAWINTPKKQGGLGTMKIPLVSDTKRVIAKDYGVLKEDEGIAYRGLFIIDEKGILRQITINDLPVGRSVDETLRLVQAFQFTDKHGEVSPAGWKPGSDTIKPDVQKSKEYFSKQK [C52S;C173S],disrupting interaction
